Biological target: amyloid-β protein (Aβ) produced from human APP770 bearing the Swedish mutation (APPswe) in rat hippocampal neurons (human)
Test: SDS-PAGE with western blot

For “amyloid-β protein (Aβ) produced from human APP770 bearing the Swedish mutation (APPswe) in rat hippocampal neurons (peptide)”, the stoichiometry N was 3.
